According to patent US20240075096A1, “ANTIMICROBIAL PEPTIDE LIQUID COMPOSITION AND FORMULATION THEREOF” (priority 2021, published 2024):
In brackets after ≈: the same amount, converted by molar mass.

How the values were obtained:
[1] = Stability investigation of antimicrobial peptide compositions (trait, related substances and content by HPLC); format: physicochemical
[2] = test system: Staphylococcus aureus ATCC29213; assay: In vitro bacteriostatic and bactericidal tests (MIC, MBC); format: cell-based; settings: standard strain ATCC29213
[3] = test system: Methicillin-sensitive coagulase-negative Staphylococcus (MSSCNS) clinical isolates; assay: as above; format: cell-based; settings: MSSCNS clinical strains
[4] = test system: Methicillin-sensitive Staphylococcus aureus (MSSA) clinical isolates; assay: as above; format: cell-based; settings: MSSA clinical strains
[5] = test system: methicillin-resistant Staphylococcus aureus (MRSA) clinical isolates; assay: as above; format: cell-based; settings: MRSA clinical strains
[6] = test system: Methicillin-resistant coagulase-negative Staphylococcus (MRSCNS) clinical isolates; assay: as above; format: cell-based; settings: MRSCNS clinical strains
[7] = 4° C., 0 days, peptide 2‰, stabilizer 1% (Table 2)
[8] = 4° C., 6 months, peptide 2‰, stabilizer 1% (Table 2)
[9] = 4° C., 12 months, peptide 2‰, stabilizer 1% (Table 2)
[10] = 4° C., 24 months, peptide 2‰, stabilizer 1% (Table 2)
[11] = 4° C., 36 months, peptide 2‰, stabilizer 1% (Table 2)
[12] = 25° C., 0 days, different mannitol systems (Table 3)
[13] = 25° C., 0 days, peptide 2‰, stabilizer 1% (Table 1)
[14] = 25° C., 1 month, peptide 2‰, stabilizer 1% (Table 1)
[15] = 25° C., 3 months, different mannitol systems (Table 3)
[16] = 25° C., 3 months, peptide 2‰, stabilizer 1% (Table 1)
[17] = 25° C., 6 months, different mannitol systems (Table 3)
[18] = 25° C., 6 months, peptide 2‰, stabilizer 1% (Table 1)

For “KWKSFLKTFKSAAKTVLHTALKAISS [antimicrobial peptide, tested alone as aqueous solution without stabilizer]”, the Content [1, 7] was 99.87%, the “Largest Single Impurity (Related Substance)” value (“Largest Single Impurity” below) [1, 7] was 0.19% and the “Total Impurities (Related Substance)” value [1, 7] was 0.32%. The Trait [1, 7] was “colorless clear liquid”, the Content [1, 8] was 97.51% and the “Largest Single Impurity” value [1, 8] was 0.27%. The “Total Impurities (Related Substance)” value [1, 8] was 0.58%, the Trait [1, 8] was “colorless transparent” and the Content [1, 9] was 94.51%. For the same compound, the “Largest Single Impurity” value [1, 9] was 0.32%, the “Total Impurities (Related Substance)” value [1, 9] was 0.68% and the Trait [1, 9] was “colorless transparent”. The Content [1, 10] was 85.57%, the “Largest Single Impurity” value [1, 10] was 0.72% and the “Total Impurities (Related Substance)” value [1, 10] was 2.01%. For the same compound, the Trait [1, 10] was “colorless transparent”, the Content [1, 11] was 76.55% and the “Largest Single Impurity” value [1, 11] was 0.96%. The “Total Impurities (Related Substance)” value [1, 11] was 3.02%, the Trait [1, 11] was “colorless transparent” and the Content [1, 12] was 100.12%. The “Largest Single Impurity” value [1, 12] was 0.16%, the “Total Impurities (Related Substance)” value [1, 12] was 0.30% and the Trait [1, 12] was “colorless”. For the same compound, the Content [1, 13] was 99.87%, the “Largest Single Impurity” value [1, 13] was 0.19% and the “Total Impurities (Related Substance)” value [1, 13] was 0.32%. The Trait [1, 13] was “colorless clear liquid”, the Content [1, 14] was 98.51% and the “Largest Single Impurity” value [1, 14] was 0.25%. The “Total Impurities (Related Substance)” value [1, 14] was 0.53%, the Trait [1, 14] was “colorless transparent” and the Content [1, 15] was 98.42%. For the same compound, the “Largest Single Impurity” value [1, 15] was 0.26%, the “Total Impurities (Related Substance)” value [1, 15] was 0.55% and the Trait [1, 15] was “colorless”. For the same compound, the Content [1, 16] was 88.57%, the “Largest Single Impurity” value [1, 16] was 0.68% and the “Total Impurities (Related Substance)” value [1, 16] was 1.96%. For the same compound, the Trait [1, 16] was “colorless transparent”, the Content [1, 17] was 87.67% and the “Largest Single Impurity” value [1, 17] was 0.85%. For the same compound, the “Total Impurities (Related Substance)” value [1, 17] was 1.99%, the Trait [1, 17] was “colorless” and the Content [1, 18] was 78.88%. For the same compound, the “Largest Single Impurity” value [1, 18] was 0.98%, the “Total Impurities (Related Substance)” value [1, 18] was 3.16% and the Trait [1, 18] was “colorless transparent”.
In the case of `CN[C@H](CC(C)C)C(=O)N[C@H]1C(=O)N[C@@H](CC(N)=O)C(=O)N[C@H]2C(=O)N[C@H]3C(=O)N[C@H](C(=O)N[C@H](C(=O)O)c4cc(O)cc(O)c4-c4cc3ccc4O)[C@H](O)c3ccc(c(Cl)c3)Oc3cc2cc(c3O[C@@H]2O[C@H](CO)[C@@H](O)[C@H](O)[C@H]2O[C@H]2C[C@](C)(N)[C@H](O)[C@H](C)O2)Oc2ccc(cc2Cl)[C@H]1O` [Vancomycin, vancomycin], the “MBC Concentration Range” value [2] is reported as 4 µg/mL (≈ 2.76 µM), the “MIC Concentration Range” value [2] is reported as 1 µg/mL (≈ 0.69 µM) and the “MIC Concentration Range” value [3] is reported as 0.5 to 4 µg/mL. For the same compound, the “MIC Concentration Range” value [4] was 0.5 to 4 µg/mL, the “MIC Concentration Range” value [5] was 0.5 to 4 µg/mL and the “MIC Concentration Range” value [6] was 0.5 to 4 µg/mL.
